Measured values from patent US10363306B2, “Cytokines and neuroantigens for treatment of immune disorders” (East Carolina University, priority 2009, dated 2019).
Ends that are not written are not given here.

Experiments:
Solubility of peptide = format: physicochemical; details: routinely reconstituted in saline
Procedure: A colony of Lewis rats was maintained at East Carolina University School of Medicine. Animal care and use was approved by the Institutional Animal Care and Use Committee and was performed in accordance with approved institutional guidelines. The synthetic peptide gp69-88 ([…]) (SEQ ID NO. 5) was obtained from Quality Controlled Biologicals, Inc. (Hopkinton, Mass.). The purity of gp69-88 was greater than 98%. […] The OX6 anti-I-A (RT1B) IgG1, the R73 anti-TCRβ IgG1, the OX81 anti-IL-4 IgG1, and the OX18 anti-MHC class I glycoproteins (MHC-I) (RT1A) IgG1 were concentrated by ultrafiltration of B cell hybridoma supernatants through Millipore spiral wound membranes (100 kd exclusion). Hybridomas were obtained from the European Collection of Cell Cultures. The B5 IgM anti-MHC-I (RT1A^a,b,l) mAb was purchased from BD Biosciences. FITC-conjugated goat anti-mouse IgG1 was purchased from Southern Biotechnology (Birmingham, Ala.).

BN-GP T cells = test: IFNβ anti-proliferative activity in IL-2 stimulated cultures of BN-GP T cells; format: cell-based, rat; details: expression supernatants, transient transfection of HEK293 cells
Procedure: FIG. 1. The IFNβ-NAg his-tagged fusion protein was biologically active and was purified on nickel resins. (A) To assess whether IFNβ-NAg induced class I MHC expression, thymocytes (5×10^6/ml in complete RPMI) were cultured with or without IFNβ-NAg for 2 days and then were stained with B5 (anti-MHC-I), OX18 (anti-MHC-I), R73 (anti-TCRβ), or OX81 (anti-IL4; isotype control) and were analyzed by flow cytometry. (B) To assess IFNβ-mediated anti-proliferative activity, supernatants from two independently derived IFNβ-NAg expression systems as well as supernatants from several control expression systems were added at designated titrations (x-axis) to IL-2 stimulated cultures of BN-GP T cells. (C) To assess the specificity of anti-proliferative activity, baculovirus supernatants containing IFNβ-NAg were added at designated titrations to cultures of rat (R1T, BN-GP, RsL.11T, RsL.11, or Conal.8D9) or mouse (CTLL) T cells. Proliferative assays (B & C) were pulsed with [^3H]thymidine on the second day of a 3-day culture. (D) Shown is a representative SDS-PAGE analysis of purified IFNβ-NAg.
FIG. 2. Structure-function analysis of the cytokine and NAg domains of IFNβ fusion proteins. (A) Expression supernatants containing designated IFNβ fusion proteins (see Table 2) were added to cultures of BN-GP T cells at designated titrations (x-axis). (B) The IFNβ-EK-NAg-6his or IFNβ-EK-6his fusion genes were inserted into the pCEP4 expression vector (Invitrogen). Inserts were verified by DNA sequencing, and the genes were expressed by transient transfection of HEK293 cells. Independently derived expression systems of IFNβ-EK-NAg-6his or IFNβ-EK-6his (3 each) were compared in the BN-GP T cell anti-proliferative assay. (C) Independently purified preparations (2 each) of each IFN-β fusion protein (IFNβ-NAg from HEK293 cells, IFNβ-NAg from baculovirus, and IFN-β from HEK293 cells) were added at designated concentrations to assess anti-proliferative activity. Two independently purified preparations of the same fusion protein were tested to verify the reliability of activity for each type of protein. The x-axis was based on the exponent of the molar concentration. For example, a concentration of 100 nM was represented as Log [10^−7]=Log10) (10^−7M)=−7 and was plotted by the exponent of −7. For these experiments (A-C), BN-GP T cells were cultured in IL-2. (D) The MBP-specific RsL.11 T cell clone and irradiated splenic APC were cultured with designated concentrations of purified IFNβ-NAg or GPMBP in the presence or absence of the OX6 anti-MHC-II mAb. (E) Five preparations of purified IFNβ-NAg and six preparations of purified IFN-β were tested for antigenic activity in cultures of RsL.11 T cells and irradiated splenic APC.
The RsL.11 MBP-specific clone was a stable, IL-2 dependent line derived from Lewis rats sensitized with rat MBP in CFA (Mannie, M. D., and M. S. Norris. 2001. MHC class-II-restricted antigen presentation by myelin basic protein-specific CD4+ T cells causes prolonged desensitization and outgrowth of CD4-responders. Cell Immunol 212:51-62). The RsL.11T clone was a transformed variant of the RsL.11 clone. […]

Molecule: YGSLPQKSQRSQDENPVVHF [NAg]
- solubility (Solubility of peptide): freely soluble

B1: ss-IFNβ-6his: Rat IFNβ with 6-histidine sequence, lacking the EK linker (protein, UniProt P70499 22-184, looked up)
Interferon beta: IDYKQLQFRQSTSIRTCQKLLRQLNGRLNLSYRTDFKIPMEVMHPSQMEKSYTAFAIQVMLQNVFLVFRSNFSSTGWNETIVESLLDELHQQTELLEIILKEKQEERLTWVTSTTTLGLKSYYWRVQRYLKDKKYNSYAWMVVRAEVFRNFSIILRLNRNFQN
modifications: C-terminal 6His tag
- Biological activity of IFNβ in expression supernatants (BN-GP T cells): Weak activity

B2: ss-IFNβ: Rat IFNβ without non-native C-terminal or N-terminal additions (protein, UniProt P70499 22-184, looked up)
Interferon beta: B1 Interferon beta
- Biological activity of IFNβ in expression supernatants (BN-GP T cells): Potent activity
